Experimental data taken from patent US7091311 (GlaxoSmithKline, dated 2006).
Like-named read-outs stand apart in the source and are kept apart here. Bridges are numbered along the chain shown (N, C = ends). Where no end group is shown, it is not given here. The star is where a group is joined. Biotin = O=C1N[C@H]2[C@H](CS[C@H]2CCCCC(=O)*)N1

Legend:
full length human TPO-R [1] = target: T1, full length human TPO-R (human, UniProt P40238 26-635); assay: cell-based or functional assay
T1 sequence (looked up): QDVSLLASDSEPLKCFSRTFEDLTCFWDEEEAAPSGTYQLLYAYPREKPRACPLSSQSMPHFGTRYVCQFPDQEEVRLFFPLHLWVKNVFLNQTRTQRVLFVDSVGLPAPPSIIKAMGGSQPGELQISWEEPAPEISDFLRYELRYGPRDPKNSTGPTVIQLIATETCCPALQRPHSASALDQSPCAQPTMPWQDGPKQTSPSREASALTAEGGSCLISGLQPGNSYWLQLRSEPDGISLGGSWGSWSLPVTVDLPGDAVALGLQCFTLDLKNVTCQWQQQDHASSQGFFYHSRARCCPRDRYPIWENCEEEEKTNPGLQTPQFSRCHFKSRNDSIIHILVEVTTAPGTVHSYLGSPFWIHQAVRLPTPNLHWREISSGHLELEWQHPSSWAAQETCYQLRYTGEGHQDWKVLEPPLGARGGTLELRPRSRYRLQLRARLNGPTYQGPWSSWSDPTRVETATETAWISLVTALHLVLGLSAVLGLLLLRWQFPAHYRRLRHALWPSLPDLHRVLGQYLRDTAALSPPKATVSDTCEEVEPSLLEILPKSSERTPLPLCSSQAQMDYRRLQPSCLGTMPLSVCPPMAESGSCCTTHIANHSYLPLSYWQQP

soluble TPO-R [2] = target: T2, soluble TPO-R (UniProt P40238 26-491); assay: equilibrium binding ELISA, MBP-TPO or lacI-peptide tracer
full length human TPO-R [3] = target: T1, full length human TPO-R; assay: cell-based or functional assay; remark: listed apart in the source
soluble TPO-R [4] = target: T2, soluble TPO-R; assay: equilibrium binding ELISA, MBP-TPO or lacI-peptide tracer; remark: listed apart in the source
soluble TPO-R [5] = target: T3, soluble TPO-R (UniProt P40238 26-491); assay: competition ELISA vs MBP-TPO156
T3 construct: extracellular domain; Immobilized through anti-HPAP antibody Ab179; also called thrombopoietin receptor; c-mpl
Procedure: (§1) The amount of alkaline phosphatase in each well was then determined using standard methods.
(§2) In this example cyclized compounds were subjected to three assays. First, $IC50$ valves were obtained as described above.

full length human TPO-R [6] = target: T1, full length human TPO-R; assay: cell-based or functional assay; remark: listed apart in the source
soluble TPO-R [7] = target: T2, soluble TPO-R; assay: competition ELISA vs MBP-TPO156
Procedure: as §1, §2

full length human TPO-R [8] = target: T1, full length human TPO-R; assay: cell-based or functional assay; remark: listed apart in the source
soluble TPO-R [9] = target: T2, soluble TPO-R; assay: competition ELISA vs MBP-TPO156; remark: listed apart in the source
Procedure: as §1

soluble TPO-R [10] = target: T2, soluble TPO-R; assay: competition ELISA vs MBP-TPO156; remark: listed apart in the source
full length human TPO-R [11] = target: T1, full length human TPO-R; assay: cell-based or functional assay; remark: listed apart in the source
soluble TPO-R [12] = target: T3, soluble TPO-R; assay: competition ELISA vs MBP-TPO156; remark: listed apart in the source
soluble TPO-R [13] = target: T3, soluble TPO-R; assay: competition ELISA vs MBP-TPO156; remark: listed apart in the source
Procedure: as §1, §2

soluble TPO-R [14] = target: T2, soluble TPO-R; assay: competition ELISA vs MBP-TPO156; remark: listed apart in the source

An EC50 cell proliferation (full length human TPO-R [1]) of roughly 200 µM and an EC50 microphysiometer (full length human TPO-R [1]) of roughly 200 µM were found for ADGPTLREWISFE (also: further groups not given here) [[drawing CHEM-US-00018] (SEQ ID NO:183)] in this work.

An IC50 (soluble TPO-R [2]) of no more than 0.5 µM was found for GGCADGPTLREWISFCGGK(Biotin) (cysteine pairing not given here, also called AF 12285) [G G C A D G P T L R E W I S F C G G K (Biotin)] in this work.

An EC50 cell proliferation (full length human TPO-R [3]) of no more than 0.5 µM and an EC50 microphysiometer (full length human TPO-R [3]) of no more than 200 µM were found for ADGPTLREWISFC-OH (also: further groups not given here) [SEQ ID NO:173 compound, free acid form] in this work.

An IC50 (soluble TPO-R [4]) of no more than 0.5 µM was found for GGCTLREWLHGGFCGG (free synthetic peptide) [G G C T L R E W L H G G F C G G] in this work.

An EC50 cell proliferation (full length human TPO-R [1]) of no more than 0.5 µM and an EC50 microphysiometer (full length human TPO-R [1]) of roughly 200 µM were found for ADGPTLREWISFC (not fully specified; also: further groups not given here) [[drawing CHEM-US-00013] (SEQ ID NO:173)] in this work.

An EC50 cell proliferation (full length human TPO-R [1]) of no more than 200 µM and an EC50 microphysiometer (full length human TPO-R [1]) of roughly 200 µM were found for ADGPTLREWISFC (not fully specified; also: further groups not given here) [[drawing CHEM-US-00006] (SEQ ID NO:173)] in this work.

An EC50 cell proliferation (full length human TPO-R [1]) of no more than 200 µM and an EC50 microphysiometer (full length human TPO-R [1]) of roughly 200 µM were found for KADGPTLREWISFE (also: further groups not given here) [[drawing CHEM-US-00014] (SEQ ID NO:181)] in this work.

An IC50 (soluble TPO-R [5]) of no more than 0.5 µM, an EC50 cell proliferation (full length human TPO-R [6]) of roughly 200 µM and an EC50 microphysiometer (full length human TPO-R [6]) of no more than 200 µM were found for CADGPTLREWISAC (also: cyclized, mode not given here) [SEQ ID NO:12 cyclized, F - A] in this work.

An EC50 cell proliferation (full length human TPO-R [1]) of no more than 200 µM and an EC50 microphysiometer (full length human TPO-R [1]) of no more than 200 µM were found for EADGPTLREWISFK (also: further groups not given here) [[drawing CHEM-US-00015] (SEQ ID NO:182)] in this work.

An IC50 (soluble TPO-R [2]) of no more than 0.5 µM was found for TIKGPTLRQWLKSREHTS (free synthetic peptide) [T I K G P T L R Q W L K S R E H T S] in this work.

An IC50 (soluble TPO-R [7]) of no more than 0.5 µM, an EC50 cell proliferation (full length human TPO-R [6]) of no more than 0.5 µM and an EC50 microphysiometer (full length human TPO-R [6]) of no more than 200 µM were found for CADGPTLRQWISFC (also: cyclized, mode not given here) [SEQ ID NO:12 cyclized, E - Q] in this work.

An EC50 cell proliferation (full length human TPO-R [8]) of no more than 0.5 µM and an IC50 (soluble TPO-R [9]) of no more than 0.5 µM were found for CIEGPTLRQWLAARAC (cysteine pairing not given here; also: further groups not given here, structure printed only as a drawing) [[drawing CHEM-US-00060] (SEQ ID NO:194)] in this work.

An IC50 (soluble TPO-R [10]) of no more than 0.5 µM, an EC50 cell proliferation (full length human TPO-R [11]) of no more than 0.5 µM and an EC50 microphysiometer (full length human TPO-R [11]) of no more than 0.5 µM were found for CADGPTLREWISF (also: further groups not given here, structure printed only as a drawing) [[drawing CHEM-US-00031] (SEQ ID NO:186)(SEQ ID NO:186)] in this work.

An IC50 (soluble TPO-R [12]) of no more than 0.5 µM, an EC50 cell proliferation (full length human TPO-R [11]) of no more than 0.5 µM and an EC50 microphysiometer (full length human TPO-R [11]) of no more than 0.5 µM were found for H-CADGPTLREWISFC-NH2 (disulfide 1-14 (inferred), also called [drawing CHEM-US-00034]) [cyclized monomer (SEQ ID NO:12)] in this work.

An EC50 cell proliferation (full length human TPO-R [8]) of no more than 0.5 µM and an IC50 (soluble TPO-R [9]) of no more than 0.5 µM were found for H-IEGPTLRQWLAARA-NH2 [[H]-IEGPTLRQWLAARA-[NH2]] in this work.

An IC50 (soluble TPO-R [10]) of no more than 0.5 µM, an EC50 cell proliferation (full length human TPO-R [11]) of no more than 0.5 µM and an EC50 microphysiometer (full length human TPO-R [11]) of no more than 0.5 µM were found for DGPTLREWISFC (also: further groups not given here, structure printed only as a drawing) [[drawing CHEM-US-00037] (SEQ ID NO:189)(SEQ ID NO:189)] in this work.

An EC50 cell proliferation (full length human TPO-R [1]) of no more than 0.5 µM, an EC50 microphysiometer (full length human TPO-R [1]) of no more than 0.5 µM and an IC50 (soluble TPO-R [13]) of no more than 0.5 µM were found for ADGPTLREWISFC (also: further groups not given here, structure printed only as a drawing) [[drawing CHEM-US-00004] (SEQ ID NO:173)] in this work.

An IC50 (soluble TPO-R [10]) of no more than 0.5 µM, an EC50 cell proliferation (full length human TPO-R [8]) of no more than 0.5 µM and an EC50 microphysiometer (full length human TPO-R [8]) of no more than 0.5 µM were found for CIEGPTLRQWLAARA (also: further groups not given here, also called [drawing CHEM-US-00062]) [[drawing CHEM-US-00030] (SEQ ID NO:185)(SEQ ID NO:185)] in this work. For the same binder, the EC50 cell proliferation (full length human TPO-R [11]) was no more than 0.5 µM, the EC50 microphysiometer (full length human TPO-R [11]) was no more than 0.5 µM and the IC50 (soluble TPO-R [9]) was no more than 0.5 µM.

An IC50 (soluble TPO-R [2]) of no more than 0.5 µM was found for GNADGPTLRQWLEGRRPKN (free synthetic peptide) [G N A D G P T L R Q W L E G R R P K N] in this work.

An IC50 (soluble TPO-R [2]) of no more than 0.5 µM was found for SIEGPTLREWLTSRTPHS (free synthetic peptide) [S I E G P T L R E W L T S R T P H S] in this work.

An IC50 (soluble TPO-R [10]) of no more than 0.5 µM, an EC50 cell proliferation (full length human TPO-R [11]) of no more than 0.5 µM and an EC50 microphysiometer (full length human TPO-R [11]) of no more than 0.5 µM were found for SVQCGPTLRQWLAARNHLS (also: further groups not given here, structure printed only as a drawing) [[drawing CHEM-US-00032] (SEQ ID NO:187)(SEQ ID NO:187)] in this work.

An IC50 (soluble TPO-R [7]) of no more than 0.5 µM, an EC50 cell proliferation (full length human TPO-R [6]) of no more than 200 µM and an EC50 microphysiometer (full length human TPO-R [6]) of no more than 200 µM were found for CAAGPTLREWISFC (also: cyclized, mode not given here) [SEQ ID NO:12 cyclized, D - A] in this work.

An IC50 (soluble TPO-R [5]) of no more than 0.5 µM, an EC50 cell proliferation (full length human TPO-R [6]) of no more than 0.5 µM and an EC50 microphysiometer (full length human TPO-R [6]) of no more than 0.5 µM were found for CADGPTLREWIAFC (also: cyclized, mode not given here) [SEQ ID NO:12 cyclized, S - A] in this work.

An IC50 (soluble TPO-R [2]) of no more than 0.5 µM was found for GGCADGPTLREWISFCGG (free synthetic peptide) [G G C A D G P T L R E W I S F C G G] in this work.

An IC50 (soluble TPO-R [14]) of no more than 0.5 µM and an EC50 cell proliferation (full length human TPO-R [3]) of no more than 0.5 µM were found for ADGPTLREWISFCG (also: further groups not given here) [SEQ ID NO:173 compound, C-term, Gly addition] in this work.

An IC50 (soluble TPO-R [10]) of roughly 200 µM and an EC50 cell proliferation (full length human TPO-R [11]) of no more than 200 µM were found for MVGPTLRSGC (also: further groups not given here, structure printed only as a drawing) [[drawing CHEM-US-00033] (SEQ ID NO:188)(SEQ ID NO:188)] in this work.

An EC50 cell proliferation (full length human TPO-R [1]) of no more than 0.5 µM and an EC50 microphysiometer (full length human TPO-R [1]) of roughly 200 µM were found for ADGPTLREWISFC (also: further groups not given here) [[drawing CHEM-US-00017] (SEQ ID NO:173)] in this work.

An IC50 (soluble TPO-R [2]) of no more than 0.5 µM was found for LAIEGPTLRQWLHGNGRDT (free synthetic peptide) [L A I E G P T L R Q W L H G N G R D T] in this work.

An IC50 (soluble TPO-R [7]) of no more than 200 µM and an EC50 microphysiometer (full length human TPO-R [6]) of no more than 200 µM were found for CPTLREWISFC (disulfide 1-11 (inferred); not fully specified) [SEQ ID NO:12 cyclized, ADG - deletion] in this work.

An EC50 cell proliferation (full length human TPO-R [1]) of no more than 0.5 µM and an EC50 microphysiometer (full length human TPO-R [1]) of no more than 200 µM were found for ADGPTLREWISFC (also: further groups not given here) [[drawing CHEM-US-00016] (SEQ ID NO:173)] in this work.
